Results: patent publication US20170281764A1 (JN BIOSCIENCES, published 2017)

Legend:
[1] = molecular target: T1, human TIGIT on cells (Jurkat-TIGIT cells; human T cells, NK cells and other blood cells) (human, UniProt Q495A1 22-244); test: cell-based or functional assay
T1 sequence: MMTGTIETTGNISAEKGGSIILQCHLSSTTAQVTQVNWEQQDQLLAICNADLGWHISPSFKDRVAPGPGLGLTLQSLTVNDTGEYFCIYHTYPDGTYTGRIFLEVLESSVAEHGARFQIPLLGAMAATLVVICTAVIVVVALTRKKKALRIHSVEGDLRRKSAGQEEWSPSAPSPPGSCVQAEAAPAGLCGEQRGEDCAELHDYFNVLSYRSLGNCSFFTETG

[2] = molecular target: T2, extracellular region of human TIGIT fused to the Fc region of human immunoglobulin gamma-1 chain (hTIGIT-Fc) (human); test: ELISA, hybridoma screening
T2 construct: also called human TIGIT-Fc fusion protein; wild-type TIGIT-Fc
Excerpt: Mouse antibodies secreted in culture supernatants of hybridoma cells were subjected to a series of screening to identify the antibodies with the following properties: (1) binding to purified hTIGIT-Fc fusion protein, (2) binding to NS0-hTIGIT cells, (3) non-binding to NS0 cells, (4) binding to CD3+ T cells derived from phytohemagglutinin-treated human peripheral blood mononuclear cells and (5) blocking of the binding of hCD155-Fc fusion protein to NS0-hTIGIT cells. The first property to bind to hTIGIT-Fc was tested by ELISA using HRP-conjugated goat antibodies against mouse kappa and lambda light chains (SouthernBiotech, Birmingham, Ala.) for identification of mouse anti-TIGIT antibodies. The second, third and fourth properties were examined by flow cytometry using PE-labeled goat anti-mouse gamma chain antibody (SouthernBiotech) for detection of cell-bound mouse antibodies. The fifth property was analyzed by flow cytometry as described below. […] TIG1, TIG2 and TIG3 monoclonal antibodies were purified from culture supernatant of hybridoma cells by protein A column chromatography as described above. The isotypes of TIG1, TIG2 and TIG3 are mouse IgG2b/kappa, IgG2a/kappa and IgG2a/kappa, respectively.

[3] = molecular target: T3, TIGIT-Fc fusion protein with the Q35A mutation (human); test: ELISA on captured mutant TIGIT-Fc
T3 construct: the entry already carries the mutation; also called pFCm179-Q35A product
Protocol: (§1) Binding of each of mouse TIG1, TIG2 and TIG3 antibodies to the TIGIT mutants was examined by ELISA. An ELISA plate was coated with 100 μl/well of goat anti-human IgG Fc-specific polyclonal antibody (Sigma-Aldrich), 1/2,000-diluted in PBS at 4° C. overnight, washed with Wash Buffer, and blocked with 200 μl/well ELISA Buffer for 20 min at room temperature. After washing with Wash Buffer, 0.5 μg/ml of transiently expressed TIGIT-Fc fusion proteins, carrying either the wild-type TIGIT or one of the six TIGIT mutants, in ELISA Buffer (100 μl/well) were applied to the ELISA plate in duplicates for incubation at room temperature for 30 min. As a negative control, culture supernatants of untransfected HEK293 cells were used. After washing with Wash Buffer, 100 μl/well of 200 ng/ml of a test antibody (TIG1, TIG2 or TIG3) in ELISA Buffer (100 μl/well) was applied. After incubating the ELISA plate for 30 min at room temperature and washing with Wash Buffer, bound antibodies were detected using 100 μl/well of HRP-conjugated goat anti-mouse kappa chain polyclonal antibody (Bethyl Laboratories, Montgomery, Tex.), 1/2,000-diluted in ELISA Buffer. After incubating the plate for 0.5 hr at room temperature and washing with Wash Buffer, color development was initiated by adding 100 μl/well of ABTS substrate (Sigma-Aldrich) and stopped with 100 μl/well of 2% oxalic acid. Absorbance was read at 405 nm.
(§2) For each of TIG1, TIG2 and TIG3, the relative binding to each TIGIT mutant was calculated in the following formula. The average absorbance with the wild type TIGIT-Fc fusion proteins [Abs A] was normalized to 100%, and the average absorbance with culture supernatants of untransfected HEK293 cells [Abs B] was normalized to 0%. The average absorbance with a mutant TIGIT-Fc fusion protein [Abs C] was normalized by the following formula: 100×([Abs C]−[Abs B])/([Abs A]−[Abs B]). […] None of the TIGIT mutants used in this assay abolished the binding of TIG2 and TIG3 to TIGIT.

[4] = molecular target: T4, TIGIT-Fc fusion protein with the N37A mutation (human); test: ELISA on captured mutant TIGIT-Fc
T4 construct: also called pFCm179-N37A product
Protocol: as §1, §2

[5] = molecular target: T5, TIGIT-Fc fusion protein with the D51A mutation (human); test: ELISA on captured mutant TIGIT-Fc
T5 construct: also called pFCm179-D51A product
Protocol: as §1, §2

[6] = molecular target: T6, extracellular region of human TIGIT fused to FLAG and GPI (hTIGIT-GPI), on the surface of NS0 cells (human); test: flow cytometry, competition with hCD155-Fc for NS0-hTIGIT cells
T6 construct: The GPI signal is processed when the anchor is attached; also called NS0-hTIGIT cells
T6 chain: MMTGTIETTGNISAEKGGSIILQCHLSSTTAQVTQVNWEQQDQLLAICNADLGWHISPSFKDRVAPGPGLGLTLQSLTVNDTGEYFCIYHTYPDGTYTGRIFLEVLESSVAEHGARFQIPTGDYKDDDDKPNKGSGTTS
Protocol: The activity of TIG1, TIG2 and TIG3 to block the interaction between TIGIT and CD155 was analyzed by flow cytometry. NS0-hTIGIT cells were incubated with a sub-saturating concentration of hCD155-Fc in the presence (or absence) of various concentrations of an anti-TIGIT monoclonal antibody as a competitor. Detection of hCD155-Fc bound to NS0-hTIGIT cells was performed with DyLight488-labeled goat anti-human IgG, Fc-specific antibody (Jackson ImmunoResearch, West Grove, Pa.).

[7] = molecular target: T3, TIGIT-Fc fusion protein with the Q35A …; test: ELISA, mutant TIGIT-Fc captured by anti-human Fc, antibody at 200 ng/ml, wild type TIGIT-Fc = 100 %
Protocol: as §1, §2

[8] = molecular target: T4, TIGIT-Fc fusion protein with the N37A …; test: as above
Protocol: as §1, §2

[9] = molecular target: TIGIT-Fc fusion protein with the E39A mutation (printed Q39A in the text) (human); test: as above
Protocol: as §1, §2

[10] = molecular target: T7, TIGIT-Fc fusion protein with the N49A mutation (human); test: as above
T7 construct: also called pFCm179-N49A product
Protocol: as §1, §2

[11] = molecular target: T5, TIGIT-Fc fusion protein with the D51A …; test: as above
Protocol: as §1, §2

[12] = molecular target: T8, TIGIT-Fc fusion protein with the F86A mutation (human); test: as above
T8 construct: also called pFCm179-F86A product
Protocol: as §1, §2

binding result [2]: binds | binding result [3]: no binding | binding result [4]: no binding | binding result [5]: no binding | IC50 [6]: 0.049 µg/mL | Relative binding to TIGIT (%) [7]: -0.1% | Relative binding to TIGIT (%) [8]: 0.8% | Relative binding to TIGIT (%) [9]: 71.1% | Relative binding to TIGIT (%) [10]: 0.5% | Relative binding to TIGIT (%) [11]: 1.8% | Relative binding to TIGIT (%) [12]: 49.5%
B1: TIG1 mouse anti-human TIGIT monoclonal antibody (antibody, mouse IgG2b, V domains shown)
VH: DVQLVESGGGLVQPGGSRKLSCAASGFTFSNFGMHWVRQAPEKGLEWVAFISSGSSSIYYADTVKGRFTISRDNPKNTLFLQMTSLRSEDTAMYYCARMRLDYYAMDYWGQGTSVTVSS
VL: DVQITQSPSYLAASPGETITINCRASKSISKYLAWYQEKPGKTNKLLIYSGSTLQSGIPSRFSGSGSGTDFTLTISSLEPEDFAMYYCQQHNEYPWTFGGGTKLEIK
notes: also called anti-TIGIT antibody (TIG1)
enhancement of NK cell mediated natural cytotoxicity of K562 cells [1]: 2 fold
